Substitutions are numbered along the chain they refer to. Positions of bridges follow the written chain, without caps; N, C: chain ends. Non-standard residues stand in square brackets, D forms with d. No end group written: not given here. NMeA = CN[C@@H](C)C(=O)O; dNMeA = CN[C@H](C)C(=O)O
T1: full-length human Regnase-1 with a FLAG tag on the N-terminal side and a biotin ligase BirA recognition … (human, UniProt Q5D1E8 1-599, biotinylated where required ; Biotinylated at the BirA recognition sequence where required. That sequence is not in the letters.)
T1 sequence: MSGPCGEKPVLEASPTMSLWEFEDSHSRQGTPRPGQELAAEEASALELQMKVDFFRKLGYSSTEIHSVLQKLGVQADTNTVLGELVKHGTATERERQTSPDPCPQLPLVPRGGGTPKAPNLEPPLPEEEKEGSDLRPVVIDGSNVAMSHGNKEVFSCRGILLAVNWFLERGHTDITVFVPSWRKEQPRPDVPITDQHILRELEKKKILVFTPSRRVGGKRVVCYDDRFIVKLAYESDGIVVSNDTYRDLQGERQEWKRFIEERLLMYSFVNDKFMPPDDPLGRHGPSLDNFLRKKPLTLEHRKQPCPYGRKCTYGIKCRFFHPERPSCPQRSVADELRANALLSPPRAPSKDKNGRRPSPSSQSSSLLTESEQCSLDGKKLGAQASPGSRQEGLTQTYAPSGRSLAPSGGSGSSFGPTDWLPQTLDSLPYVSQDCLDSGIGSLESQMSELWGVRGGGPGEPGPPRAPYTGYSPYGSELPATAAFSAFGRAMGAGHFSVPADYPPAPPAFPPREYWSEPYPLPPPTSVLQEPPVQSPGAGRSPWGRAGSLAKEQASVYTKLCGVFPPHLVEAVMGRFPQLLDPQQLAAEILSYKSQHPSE

T2: Reg1_301-599 (human Regnase-1 amino acids 301 to 599, FLAG tag on the N-terminal side, BirA recognition … (human))
T2 sequence (Q5D1E8 301-599, looked up): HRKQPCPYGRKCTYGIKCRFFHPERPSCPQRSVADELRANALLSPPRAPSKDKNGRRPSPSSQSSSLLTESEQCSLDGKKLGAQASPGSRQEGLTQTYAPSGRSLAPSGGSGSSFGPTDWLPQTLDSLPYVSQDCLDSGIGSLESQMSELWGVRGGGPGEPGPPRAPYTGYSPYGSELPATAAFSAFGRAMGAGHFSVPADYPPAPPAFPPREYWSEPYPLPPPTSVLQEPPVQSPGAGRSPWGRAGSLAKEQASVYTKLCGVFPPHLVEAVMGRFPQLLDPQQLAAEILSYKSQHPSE

B1: PP4 (peptide)
peptide: [NMeA]YIWDFFGDLD
modifications: lactam N-11
B2: PP22 (peptide)
peptide: [NMeA]NSWYRIWGLD
modifications: lactam N-11
B3: PP23 (peptide)
peptide: [dNMeA]PTSSWYKIWD
modifications: lactam N-11
B4: REB0007 (antibody, V domains shown)
VH: QEQLEESGGDLVKPEGSLTLTCTASGFSFNSRYWICWVRQAPGKGLEWIGCIVSGDSNTYYASWAKGRFTISKTSSTTVTLQMTSLTAADTATYFCARWYTSSRPGLWGPGTLVTVSS
VL: DVVMTQTPASVSEPVGGTVTIKCQASQSISSYLSWYQQKPGQPPKLLIYSATNLASGVSSRFKGSRFGTEFTLTISDLECDDAATYYCQCSYYVSGFAFGGGTEVVVKG
notes: Rabbit antibody gene expressed in HEK293 cells, purified by Protein A; also called anti-Regnase-1 antibody; anti-non-phosphorylated Regnase-1 peptide antibody
B5: REB0022 (antibody, V domains shown)
VH: QEQLEESGGDLVKPEGSLTLTCTASGGSFSSRYWMCWVRQAPGKGLEWIACIVIGDRNNYYASWAKGRFTISKTSSTTVTLQMTSLTAADTATYFCARWHSSTAPSLWGPGTLVTVSS
VL: B4 VL with K22N, S50K, T52S, N53T, R66G, F67S, D81A, A98V
notes: as for B4
B6: REB0014 (antibody, V domains shown)
VH: QSLEESGGGLVKPGGTLTLTCKASGIDFSSYYYMCWVRQAPGKGLEWIACIYSGDGSSYYVSWANGRFTISKTSSATVTLQMTSLTAADTATYFCARDLGNLWGPGTLVTVSS
VL: QVLTQTPASVSAAVGGTVTINCQASQSVYKNSGLSWFQQKPGQSPKRLIYSASTLDSGVPSRFKGSGSGTQFTLTISDVQCDDAATYYCLGIYVCSSVDCGAFGGGTEVVVKG
notes: as for B4

Each binder was assayed against T1, full-length human Regnase-1 with a FLAG … (assay: cell-based or functional assay).

IC50, phosphorylation by IKKβ | IC50, phosphorylation by TBK1 | Binder
19.5 µM | 61.9 µM | B1

Each binder was assayed against T3, ΔCTD_Reg1 (human Regnase-1 amino acids 1 to 546, FLAG tag on the N-terminal side, BirA recognition sequence … (human)) (assay: cell-based or functional assay).

IC50, phosphorylation by IKKβ | IC50, phosphorylation by TBK1 | Binder
8.3 µM | 44.9 µM | B1

Molecular target: T1, full-length human Regnase-1 with a FLAG …
Test: cell-based or functional assay
Remark: another data set of the same source

IC50, phosphorylation by TBK1 | Binder
24.3 µM | B2
18.8 µM | B3
61.9 µM | B1

Molecular target: T3, ΔCTD_Reg1 (human Regnase-1 amino acids …)
Test: cell-based or functional assay
Remark: another data set of the same source

IC50, phosphorylation by TBK1 | Binder
22.8 µM | B2
29.7 µM | B3
44.9 µM | B1

These binders were tested against T2, Reg1_301-599 (human Regnase-1 amino …) (assay: cell-based or functional assay).

IC50, phosphorylation by TBK1 | Binder
25.8 µM | B2
30.7 µM | B3
35.9 µM | B1

Molecular target: T1, full-length human Regnase-1 with a FLAG …
Test: cell-based or functional assay
Remark: another data set of the same source

IC50, phosphorylation by IKKβ | Binder
15 µM | B2
25.6 µM | B3
19.5 µM | B1

Molecular target: T3, ΔCTD_Reg1 (human Regnase-1 amino acids …)
Test: cell-based or functional assay
Remark: another data set of the same source

IC50, phosphorylation by IKKβ | Binder
34 µM | B2
> 62.1 µM | B3
8.3 µM | B1

Molecular target: T2, Reg1_301-599 (human Regnase-1 amino …)
Test: cell-based or functional assay
Remark: another data set of the same source

IC50, phosphorylation by IKKβ | Binder
31 µM | B2
> 62.1 µM | B3
12.8 µM | B1

What follows are binders tested against T1, full-length human Regnase-1 with a FLAG … (assay: AlphaScreen, blocks IKKβ binding to FL_Reg1).

IC50 | Binder
47.7 µM | B1

Each binder was assayed against T1, full-length human Regnase-1 with a FLAG … (assay: AlphaScreen, blocks TBK1 binding to FL_Reg1).

IC50 | Binder
24.4 µM | B1

Molecular target: T1, full-length human Regnase-1 with a FLAG …
Test: AlphaScreen, blocks TBK1 binding to FL_Reg1
Remark: another data set of the same source

IC50 | Binder
11.4 µM | B2
9.2 µM | B3
24.4 µM | B1

Molecular target: T1, full-length human Regnase-1 with a FLAG …
Test: AlphaScreen, blocks IKKβ binding to FL_Reg1
Remark: another data set of the same source

IC50 | Binder
26.8 µM | B2
41.3 µM | B3
47.7 µM | B1

The binders below were run against T1, full-length human Regnase-1 with a FLAG … (assay: affinity selection-MS (SEC, LC/MS), 1 µM each).

AS-MS ratio(%) | Binder
14.5% | B2
28.6% | B3
37.5% | B1

Each binder was assayed against T1, full-length human Regnase-1 with a FLAG … (assay: flow cytometry of antigen-coated streptavidin beads).

binding result | Binder
binds | B4
binds | B5
binds | B6

From patent US20220125891A1 (OSAKA UNIVERSITY, published 2022)
